Reference: US20160200786A1
One block for each molecule: values may come before it. Ends that are not written are not given here.

Assays:
[1] = biological target: GST-BCL-2δC21 fusion protein [GST: P08515]; experiment: fluorescence polarization, 25 nM fluorescein-peptide titrated with GST-BCL-2, 37 C
[2] = biological target: GST-BCL-2δC21 fusion protein [GST: P08515]; experiment: fluorescence polarization, unlabelled peptide displacing 25 nM fluoresceinated BIDBH3 from 1 µM GST-BCL-2
[3] = biological target: GST-BCL-2δC21 fusion protein [GST: P08515]; experiment: fluorescence polarization, Kd of BADBH3 against Kd of BIDBH3 on BCL-2
[4] = biological target: GST-BCL-2δC21 fusion protein [GST: P08515]; experiment: fluorescence polarization, 25 nM fluorescein-peptide titrated with GST-BCL-2, 37 C; SD +/- 11
[5] = biological target: GST-BCL-2δC21 fusion protein [GST: P08515]; experiment: fluorescence polarization, 25 nM fluorescein-peptide titrated with GST-BCL-2, 37 C; SD +/- 272
[6] = biological target: GST-BCL-2δC21 fusion protein [GST: P08515]; experiment: fluorescence polarization, unlabelled peptide displacing 25 nM fluoresceinated BIDBH3 from 1 µM GST-BCL-2; SD +/- 1648
[7] = biological target: GST-BCL-2δC21 fusion protein [GST: P08515]; experiment: fluorescence polarization, 25 nM fluorescein-peptide titrated with GST-BCL-2, 37 C; SD +/- 6
[8] = biological target: GST-BCL-2δC21 fusion protein [GST: P08515]; experiment: fluorescence polarization, unlabelled peptide displacing 25 nM fluoresceinated BIDBH3 from 1 µM GST-BCL-2; SD +/- 60

Kd [1]: > 1000 nM | IC50 [2]: > 30000 nM
Molecule: NOXAABH3 (peptide)

Kd [1]: > 1000 nM | IC50 [2]: > 30000 nM
Molecule: NOXABBH3 (peptide)

Kd [1]: > 1000 nM | IC50 [2]: > 30000 nM
Molecule: EDIIRNIARHAAQVGASMDR (not fully specified) [BIDBH3 mut]

fold greater affinity than BIDBH3 peptide [3]: 5 fold | Kd [4]: 41 nM
Molecule: NLWAAQRYGRELRRMSDEFVDSFKK (not fully specified) [BADBH3]

Kd [5]: 485 nM | IC50 [6]: 4920 nM
Molecule: MEGSDALALRLACIGDEMDV (not fully specified) [BIKBH3]

Kd [1]: > 1000 nM | IC50 [2]: > 30000 nM
B1: BCLXBH3 (peptide)
peptide: VIPMAAVKQALREAGDEFEL
modifications: fluorescein at the amino-terminus via an AHA linker in the Kd assays; unlabelled as competitor and on mitochondria

Kd [7]: 39 nM | IC50 [8]: 173 nM
Molecule: LWAAQRYGRELRRMSDEFEGSFKGL (not fully specified) [mBADBH3]
